Experimental data reported in patent US12679878B2, “CRF2 receptor agonists and their use in therapy” (SANOFI, priority 2020, dated 2026).
Starred links: 1 amine or outer side, 2 acyl side, 3 side chain; linkers in the order of their positions; H or OH if unused. Non-standard residues stand in square brackets, D forms with d. Groups on a side chain read outwards from the residue. No end group written: not given here. *: point of attachment. C20 diacid = O=C(O)CCCCCCCCCCCCCCCCCCC(=O)*; C18 diacid = O=C(O)CCCCCCCCCCCCCCCCC(=O)*; γGlu = O=C(O)[C@H](CCC(=O)[*:2])N[*:1]; AEEA = NCCOCCOCC(=O)O; Aib = CC(C)(N)C(=O)O

Target: human corticotropin-releasing factor 2α (CRF2 α receptor) (human), Q13324
Sequence (Q13324 20-411): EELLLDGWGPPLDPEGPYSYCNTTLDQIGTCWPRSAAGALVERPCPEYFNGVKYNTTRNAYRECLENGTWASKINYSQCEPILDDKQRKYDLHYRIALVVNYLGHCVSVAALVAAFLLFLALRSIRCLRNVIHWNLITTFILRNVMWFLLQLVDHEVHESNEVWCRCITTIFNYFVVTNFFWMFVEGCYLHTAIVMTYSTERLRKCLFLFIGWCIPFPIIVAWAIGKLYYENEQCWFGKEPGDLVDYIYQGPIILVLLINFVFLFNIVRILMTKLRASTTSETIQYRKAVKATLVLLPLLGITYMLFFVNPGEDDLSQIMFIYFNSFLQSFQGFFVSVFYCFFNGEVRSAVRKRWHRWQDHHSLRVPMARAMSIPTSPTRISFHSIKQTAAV
Experiment: cell-based or functional assay

Binder	EC50 [nM], 0% HSA	EC50 [nM], 0.1% HSA
IVLSLDVPIKLK([AEEA-AEEA-γGlu-C18 diacid])QILLKQERQK[Aib]QRQKAEKNKQILAQV-NH2 (N-terminus assumed; SMILES CC[C@H](C)[C@H](N)C(=O)N[C@H](C(=O)N[C@@H](CC(C)C)C(=O)N[C@@H](CO)C(=O)N[C@@H](CC(C)C)C(=O)N[C@@H](CC(=O)O)C(=O)N[C@H](C(=O)N1CCC[C@H]1C(=O)N[C@H](C(=O)N[C@@H](CCCCN)C(=O)N[C@@H](CC(C)C)C(=O)N[C@@H](CCCCNC(=O)COCCOCCNC(=O)COCCOCCNC(=O)CC[C@H](NC(=O)CCCCCCCCCCCCCCCCC(=O)O)C(=O)O)C(=O)N[C@@H](CCC(N)=O)C(=O)N[C@H](C(=O)N[C@@H](CC(C)C)C(=O)N[C@@H](CC(C)C)C(=O)N[C@@H](CCCCN)C(=O)N[C@@H](CCC(N)=O)C(=O)N[C@@H](CCC(=O)O)C(=O)N[C@@H](CCCNC(=N)N)C(=O)N[C@@H](CCC(N)=O)C(=O)N[C@@H](CCCCN)C(=O)NC(C)(C)C(=O)N[C@@H](CCC(N)=O)C(=O)N[C@@H](CCCNC(=N)N)C(=O)N[C@@H](CCC(N)=O)C(=O)N[C@@H](CCCCN)C(=O)N[C@@H](C)C(=O)N[C@@H](CCC(=O)O)C(=O)N[C@@H](CCCCN)C(=O)N[C@@H](CC(N)=O)C(=O)N[C@@H](CCCCN)C(=O)N[C@@H](CCC(N)=O)C(=O)N[C@H](C(=O)N[C@@H](CC(C)C)C(=O)N[C@@H](C)C(=O)N[C@@H](CCC(N)=O)C(=O)N[C@H](C(N)=O)C(C)C)[C@@H](C)CC)[C@@H](C)CC)[C@@H](C)CC)C(C)C)C(C)C) [SEQ ID NO: 22]	0.12 nM	
IVLSLD[dV]PIKLK([AEEA-AEEA-γGlu-C20 diacid])QILLKQERQKKQRQQAEKNKQILAQV-NH2 (N-terminus assumed; SMILES CC[C@H](C)[C@H](N)C(=O)N[C@H](C(=O)N[C@@H](CC(C)C)C(=O)N[C@@H](CO)C(=O)N[C@@H](CC(C)C)C(=O)N[C@@H](CC(=O)O)C(=O)N[C@@H](C(=O)N1CCC[C@H]1C(=O)N[C@H](C(=O)N[C@@H](CCCCN)C(=O)N[C@@H](CC(C)C)C(=O)N[C@@H](CCCCNC(=O)COCCOCCNC(=O)COCCOCCNC(=O)CC[C@H](NC(=O)CCCCCCCCCCCCCCCCCCC(=O)O)C(=O)O)C(=O)N[C@@H](CCC(N)=O)C(=O)N[C@H](C(=O)N[C@@H](CC(C)C)C(=O)N[C@@H](CC(C)C)C(=O)N[C@@H](CCCCN)C(=O)N[C@@H](CCC(N)=O)C(=O)N[C@@H](CCC(=O)O)C(=O)N[C@@H](CCCNC(=N)N)C(=O)N[C@@H](CCC(N)=O)C(=O)N[C@@H](CCCCN)C(=O)N[C@@H](CCCCN)C(=O)N[C@@H](CCC(N)=O)C(=O)N[C@@H](CCCNC(=N)N)C(=O)N[C@@H](CCC(N)=O)C(=O)N[C@@H](CCC(N)=O)C(=O)N[C@@H](C)C(=O)N[C@@H](CCC(=O)O)C(=O)N[C@@H](CCCCN)C(=O)N[C@@H](CC(N)=O)C(=O)N[C@@H](CCCCN)C(=O)N[C@@H](CCC(N)=O)C(=O)N[C@H](C(=O)N[C@@H](CC(C)C)C(=O)N[C@@H](C)C(=O)N[C@@H](CCC(N)=O)C(=O)N[C@H](C(N)=O)C(C)C)[C@@H](C)CC)[C@@H](C)CC)[C@@H](C)CC)C(C)C)C(C)C) [SEQ ID NO: 178]	0.04 nM	3.77 nM
IVLSLD[dV]PIKLK([γGlu-C18 diacid])QILLKQARQK[Aib]QRAQAEKNKRILERV-NH2 (N-terminus assumed; SMILES CC[C@H](C)[C@H](N)C(=O)N[C@H](C(=O)N[C@@H](CC(C)C)C(=O)N[C@@H](CO)C(=O)N[C@@H](CC(C)C)C(=O)N[C@@H](CC(=O)O)C(=O)N[C@@H](C(=O)N1CCC[C@H]1C(=O)N[C@H](C(=O)N[C@@H](CCCCN)C(=O)N[C@@H](CC(C)C)C(=O)N[C@@H](CCCCNC(=O)CC[C@H](NC(=O)CCCCCCCCCCCCCCCCC(=O)O)C(=O)O)C(=O)N[C@@H](CCC(N)=O)C(=O)N[C@H](C(=O)N[C@@H](CC(C)C)C(=O)N[C@@H](CC(C)C)C(=O)N[C@@H](CCCCN)C(=O)N[C@@H](CCC(N)=O)C(=O)N[C@@H](C)C(=O)N[C@@H](CCCNC(=N)N)C(=O)N[C@@H](CCC(N)=O)C(=O)N[C@@H](CCCCN)C(=O)NC(C)(C)C(=O)N[C@@H](CCC(N)=O)C(=O)N[C@@H](CCCNC(=N)N)C(=O)N[C@@H](C)C(=O)N[C@@H](CCC(N)=O)C(=O)N[C@@H](C)C(=O)N[C@@H](CCC(=O)O)C(=O)N[C@@H](CCCCN)C(=O)N[C@@H](CC(N)=O)C(=O)N[C@@H](CCCCN)C(=O)N[C@@H](CCCNC(=N)N)C(=O)N[C@H](C(=O)N[C@@H](CC(C)C)C(=O)N[C@@H](CCC(=O)O)C(=O)N[C@@H](CCCNC(=N)N)C(=O)N[C@H](C(N)=O)C(C)C)[C@@H](C)CC)[C@@H](C)CC)[C@@H](C)CC)C(C)C)C(C)C) [SEQ ID NO: 180]	0.05 nM	1.74 nM

Other lines, results leading:

EC50 [nM], 0% HSA	EC50 [nM], 0.1% HSA	Binder
1.18 nM	15.3 nM	IVLSLD[dV]PIKLK([γGlu-C18 diacid])QILLKQERQKKQRQQAEKNKQILAQV-NH2 (N-terminus assumed; SMILES CC[C@H](C)[C@H](N)C(=O)N[C@H](C(=O)N[C@@H](CC(C)C)C(=O)N[C@@H](CO)C(=O)N[C@@H](CC(C)C)C(=O)N[C@@H](CC(=O)O)C(=O)N[C@@H](C(=O)N1CCC[C@H]1C(=O)N[C@H](C(=O)N[C@@H](CCCCN)C(=O)N[C@@H](CC(C)C)C(=O)N[C@@H](CCCCNC(=O)CC[C@H](NC(=O)CCCCCCCCCCCCCCCCC(=O)O)C(=O)O)C(=O)N[C@@H](CCC(N)=O)C(=O)N[C@H](C(=O)N[C@@H](CC(C)C)C(=O)N[C@@H](CC(C)C)C(=O)N[C@@H](CCCCN)C(=O)N[C@@H](CCC(N)=O)C(=O)N[C@@H](CCC(=O)O)C(=O)N[C@@H](CCCNC(=N)N)C(=O)N[C@@H](CCC(N)=O)C(=O)N[C@@H](CCCCN)C(=O)N[C@@H](CCCCN)C(=O)N[C@@H](CCC(N)=O)C(=O)N[C@@H](CCCNC(=N)N)C(=O)N[C@@H](CCC(N)=O)C(=O)N[C@@H](CCC(N)=O)C(=O)N[C@@H](C)C(=O)N[C@@H](CCC(=O)O)C(=O)N[C@@H](CCCCN)C(=O)N[C@@H](CC(N)=O)C(=O)N[C@@H](CCCCN)C(=O)N[C@@H](CCC(N)=O)C(=O)N[C@H](C(=O)N[C@@H](CC(C)C)C(=O)N[C@@H](C)C(=O)N[C@@H](CCC(N)=O)C(=O)N[C@H](C(N)=O)C(C)C)[C@@H](C)CC)[C@@H](C)CC)[C@@H](C)CC)C(C)C)C(C)C) [SEQ ID NO: 181]
0.03 nM	1.88 nM	IVLSLD[dV]PIKLK([γGlu-C18 diacid])QILLKQERQK[Aib]QREQAEKNKQILAQV-NH2 (N-terminus assumed; SMILES CC[C@H](C)[C@H](N)C(=O)N[C@H](C(=O)N[C@@H](CC(C)C)C(=O)N[C@@H](CO)C(=O)N[C@@H](CC(C)C)C(=O)N[C@@H](CC(=O)O)C(=O)N[C@@H](C(=O)N1CCC[C@H]1C(=O)N[C@H](C(=O)N[C@@H](CCCCN)C(=O)N[C@@H](CC(C)C)C(=O)N[C@@H](CCCCNC(=O)CC[C@H](NC(=O)CCCCCCCCCCCCCCCCC(=O)O)C(=O)O)C(=O)N[C@@H](CCC(N)=O)C(=O)N[C@H](C(=O)N[C@@H](CC(C)C)C(=O)N[C@@H](CC(C)C)C(=O)N[C@@H](CCCCN)C(=O)N[C@@H](CCC(N)=O)C(=O)N[C@@H](CCC(=O)O)C(=O)N[C@@H](CCCNC(=N)N)C(=O)N[C@@H](CCC(N)=O)C(=O)N[C@@H](CCCCN)C(=O)NC(C)(C)C(=O)N[C@@H](CCC(N)=O)C(=O)N[C@@H](CCCNC(=N)N)C(=O)N[C@@H](CCC(=O)O)C(=O)N[C@@H](CCC(N)=O)C(=O)N[C@@H](C)C(=O)N[C@@H](CCC(=O)O)C(=O)N[C@@H](CCCCN)C(=O)N[C@@H](CC(N)=O)C(=O)N[C@@H](CCCCN)C(=O)N[C@@H](CCC(N)=O)C(=O)N[C@H](C(=O)N[C@@H](CC(C)C)C(=O)N[C@@H](C)C(=O)N[C@@H](CCC(N)=O)C(=O)N[C@H](C(N)=O)C(C)C)[C@@H](C)CC)[C@@H](C)CC)[C@@H](C)CC)C(C)C)C(C)C) [SEQ ID NO: 179]
0.03 nM	3.13 nM	IVLSLD[dV]PIKLK(C18 diacid)QILLKQERQK[Aib]QREQAEKNKQILAQV-NH2 (N-terminus assumed; SMILES CC[C@H](C)[C@H](N)C(=O)N[C@H](C(=O)N[C@@H](CC(C)C)C(=O)N[C@@H](CO)C(=O)N[C@@H](CC(C)C)C(=O)N[C@@H](CC(=O)O)C(=O)N[C@@H](C(=O)N1CCC[C@H]1C(=O)N[C@H](C(=O)N[C@@H](CCCCN)C(=O)N[C@@H](CC(C)C)C(=O)N[C@@H](CCCCNC(=O)CCCCCCCCCCCCCCCCC(=O)O)C(=O)N[C@@H](CCC(N)=O)C(=O)N[C@H](C(=O)N[C@@H](CC(C)C)C(=O)N[C@@H](CC(C)C)C(=O)N[C@@H](CCCCN)C(=O)N[C@@H](CCC(N)=O)C(=O)N[C@@H](CCC(=O)O)C(=O)N[C@@H](CCCNC(=N)N)C(=O)N[C@@H](CCC(N)=O)C(=O)N[C@@H](CCCCN)C(=O)NC(C)(C)C(=O)N[C@@H](CCC(N)=O)C(=O)N[C@@H](CCCNC(=N)N)C(=O)N[C@@H](CCC(=O)O)C(=O)N[C@@H](CCC(N)=O)C(=O)N[C@@H](C)C(=O)N[C@@H](CCC(=O)O)C(=O)N[C@@H](CCCCN)C(=O)N[C@@H](CC(N)=O)C(=O)N[C@@H](CCCCN)C(=O)N[C@@H](CCC(N)=O)C(=O)N[C@H](C(=O)N[C@@H](CC(C)C)C(=O)N[C@@H](C)C(=O)N[C@@H](CCC(N)=O)C(=O)N[C@H](C(N)=O)C(C)C)[C@@H](C)CC)[C@@H](C)CC)[C@@H](C)CC)C(C)C)C(C)C) [SEQ ID NO: 182]
